Data reported in patent US20210292386A1.
Like-named read-outs stand apart in the source and are kept apart here.

Experiments:
Test in all cases: cell-based or functional assay
[1] = target: T1, high-affinity IL2 receptor (IL2Rαβγ) of the mouse T cell line CTLL-2 (mouse) (UniProt P01590)
T1 sequence (looked up) 1: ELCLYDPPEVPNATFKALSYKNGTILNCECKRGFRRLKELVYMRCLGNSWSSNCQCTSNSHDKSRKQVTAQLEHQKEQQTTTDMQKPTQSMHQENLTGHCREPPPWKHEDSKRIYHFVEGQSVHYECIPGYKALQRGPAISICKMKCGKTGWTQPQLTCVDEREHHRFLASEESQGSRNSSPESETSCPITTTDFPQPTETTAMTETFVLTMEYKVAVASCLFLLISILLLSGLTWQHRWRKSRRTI
T1 sequence (looked up) 2: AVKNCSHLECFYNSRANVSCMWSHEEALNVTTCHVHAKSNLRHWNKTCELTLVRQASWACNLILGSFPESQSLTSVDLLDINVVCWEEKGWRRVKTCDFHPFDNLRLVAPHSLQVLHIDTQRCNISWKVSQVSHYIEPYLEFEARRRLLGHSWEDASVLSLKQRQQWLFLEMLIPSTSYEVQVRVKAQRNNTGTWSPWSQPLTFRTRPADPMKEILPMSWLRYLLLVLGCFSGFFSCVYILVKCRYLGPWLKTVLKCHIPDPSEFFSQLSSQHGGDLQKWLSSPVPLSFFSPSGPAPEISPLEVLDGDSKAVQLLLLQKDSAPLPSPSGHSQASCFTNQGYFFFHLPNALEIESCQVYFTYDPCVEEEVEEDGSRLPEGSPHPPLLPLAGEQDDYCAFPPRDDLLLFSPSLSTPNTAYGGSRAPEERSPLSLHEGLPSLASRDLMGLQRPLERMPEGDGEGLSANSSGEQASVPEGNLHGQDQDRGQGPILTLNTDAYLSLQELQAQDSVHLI
T1 sequence (looked up) 3: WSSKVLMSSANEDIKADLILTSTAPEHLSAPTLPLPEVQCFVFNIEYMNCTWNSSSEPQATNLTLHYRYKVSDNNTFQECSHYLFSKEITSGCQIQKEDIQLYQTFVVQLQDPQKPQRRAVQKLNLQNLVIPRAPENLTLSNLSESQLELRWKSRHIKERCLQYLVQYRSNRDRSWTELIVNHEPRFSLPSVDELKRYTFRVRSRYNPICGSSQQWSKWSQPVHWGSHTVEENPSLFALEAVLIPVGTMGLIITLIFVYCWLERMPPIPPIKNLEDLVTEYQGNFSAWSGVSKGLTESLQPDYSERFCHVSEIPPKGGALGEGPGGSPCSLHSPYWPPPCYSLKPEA

[2] = target: intermediate-affinity IL2 receptor (IL2Rβγ), human (human) (UniProt P14784)
[3] = target: T1, high-affinity IL2 receptor (IL2Rαβγ) of the mouse T cell line CTLL-2 (mouse); remark: listed apart in the source
[4] = target: intermediate-affinity IL2 receptor (IL2Rβγ), human (human) (UniProt P14784); design: unit not given beside the values
[5] = target: high-affinity IL2 receptor (IL2Rαβγ), human, on CD4+CD25+FoxP3+ regulatory T cells (human) (UniProt P01589); design: unit not given beside the values
UniProt P01589, sequence (P01589 22-272, chain 1 of 3): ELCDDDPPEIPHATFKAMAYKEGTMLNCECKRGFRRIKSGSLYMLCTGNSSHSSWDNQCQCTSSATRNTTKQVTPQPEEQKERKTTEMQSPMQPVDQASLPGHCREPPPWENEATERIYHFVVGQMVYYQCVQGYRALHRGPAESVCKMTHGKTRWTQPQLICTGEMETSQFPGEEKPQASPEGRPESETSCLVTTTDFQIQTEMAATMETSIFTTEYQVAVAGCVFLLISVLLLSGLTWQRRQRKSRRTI
UniProt P01589, sequence (P14784 27-551, chain 2 of 3, further chain): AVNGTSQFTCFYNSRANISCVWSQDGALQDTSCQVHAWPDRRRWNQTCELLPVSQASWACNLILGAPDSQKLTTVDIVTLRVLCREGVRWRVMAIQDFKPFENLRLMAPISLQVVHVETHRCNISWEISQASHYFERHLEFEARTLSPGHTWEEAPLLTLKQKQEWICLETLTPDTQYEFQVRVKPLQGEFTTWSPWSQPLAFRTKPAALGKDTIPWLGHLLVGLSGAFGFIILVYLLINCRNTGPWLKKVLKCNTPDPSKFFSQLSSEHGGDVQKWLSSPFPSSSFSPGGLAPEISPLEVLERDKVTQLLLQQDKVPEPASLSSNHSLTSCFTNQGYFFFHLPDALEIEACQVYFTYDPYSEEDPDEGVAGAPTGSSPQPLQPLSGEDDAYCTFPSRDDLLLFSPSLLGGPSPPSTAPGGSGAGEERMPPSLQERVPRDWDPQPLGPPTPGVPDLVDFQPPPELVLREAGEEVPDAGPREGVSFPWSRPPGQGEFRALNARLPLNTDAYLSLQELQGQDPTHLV
UniProt P01589, sequence (P31785 23-369, chain 3 of 3, further chain): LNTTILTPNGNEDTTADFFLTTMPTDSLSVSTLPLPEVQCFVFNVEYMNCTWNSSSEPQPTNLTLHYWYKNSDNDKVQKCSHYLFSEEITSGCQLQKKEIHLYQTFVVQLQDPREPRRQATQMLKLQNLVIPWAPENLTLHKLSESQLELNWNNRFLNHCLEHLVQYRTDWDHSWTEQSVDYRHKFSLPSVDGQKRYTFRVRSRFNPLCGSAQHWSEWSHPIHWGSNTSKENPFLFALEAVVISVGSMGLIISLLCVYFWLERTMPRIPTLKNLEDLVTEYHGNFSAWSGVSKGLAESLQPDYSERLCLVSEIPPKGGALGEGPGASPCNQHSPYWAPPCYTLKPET

UniProt P14784, sequence (P14784 27-551, chain 1 of 2): as the sequence (P14784 27-551, chain 2 of 3, further chain) above
UniProt P14784, sequence (P31785 23-369, chain 2 of 2, further chain): as the sequence (P31785 23-369, chain 3 of 3, further chain) above

**Q.** With hAlb-hIL2 (ligand) as the substance, how does the EC50 of CTLL-2 proliferation (%-supernatant) [1] read?
**A.** 0.214

**Q.** And the EC50 of TF-1 IL2Rβγ proliferation (%-supernatant) [2]?
**A.** 2.35

**Q.** And the EC50 of CTLL-2 proliferation (%-supernatant) [3]?
**A.** 0.115

**Q.** What about the EC50 of STAT5 phosphorylation, CD4+CD25- T helper cells (%-supernatant) [4] of the same substance?
**A.** 4.36

**Q.** What about the EC50 of STAT5 phosphorylation, CD8+ cytotoxic T cells (%-supernatant) [4] of the same substance?
**A.** 6.84

**Q.** And the EC50 of STAT5 phosphorylation, CD4+CD25+FoxP3+ Treg (%-supernatant) [5]?
**A.** 0.111
